Source: paper PMC7612964

Target: Flag-NLS-Actin wt
Experiment: proximity ligation

“endogenous BRM (from UniProt P51531 1-1590) (natural protein)” gave a % PLA-positive cells (spread cells, high mechanical inputs) of 94.7%.
